In patent US20160136262A1 one finds ratio binding/HTRF signal and fold increase of ratio over parental H1 mini-HA data, which are given here for one molecule.

In assay [1] the target is T1, H1-mini2-cluster1+5+6-GCN4 without leader sequence and with FLAG-thrombin-foldon-HIS (SEQ ID NO: 6). The assay is described as follows: ELISA signal over HTRF expression signal; average (AV). Conditions: remark: other sources report otherwise. On the technique in general: ELISA stands for enzyme-linked immunosorbent assay.
Assay [2] has as its target T1, H1-mini2-cluster1+5+6-GCN4 without …. The assay is described as follows: ELISA/HTRF ratio, reference itself. The settings on record: remark: other sources report otherwise.

B1: CR6261 (antibody, V domains shown)
VH: EVQLVESGAEVKKPGSSVKVSCKASGGPFRSYAISWVRQAPGQGPEWMGGIIPIFGTTKYAPKFQGRVTITADDFAGTVYMELSSLRSEDTAMYYCAKHMGYQVRETMDVWGKGTTVTVSS
VL: QSVLTQPPSVSAAPGQKVTISCSGSSSNIGNDYVSWYQQLPGTAPKLLIYDNNKRPSGIPDRFSGSKSGTSATLGITGLQTGDEANYYCATWDRRPTAYVVFGGGTKLTVLG
On to B1, for which the ratio binding/HTRF signal in assay [1] was 5.94. In addition, the fold increase of ratio over parental H1 mini-HA in assay [2] turned out to be 1 fold.
